# Data from US20120264815, “REVERSIBLE PLATELET INHIBITION” (DUKE UNIVERSITY, published 2012).
# B1: C3 (ssRNA)
# RNA: GGGAGGACGAUGCGGUGCCACAUGCCUCAGAUACAGCACGCACCUUCGACCUAAUCAGACGACUCGCUGAGGAUCC
# modifications: 2'-F pyrimidines
# B2: VWF R9.14 (ssRNA)
# RNA: GGGAGGACGAUGCGGUGGACGAACUGCCCUCAGCUACUUUCAUGUUGCUGACGCACAGACGACUCGCUGAGGAUCCGAGA
# modifications: 2'-F pyrimidines
# B3: C1 (ssRNA)
# RNA: GGGAGGACGAUGCGGUAUAGACCACAGCCUGAGUAUUAACCACCAACCCAGGUACUCAGACGACUCGCUGAGGAUCC
# modifications: 2'-F pyrimidines
# B4: 9.14 T10 (ssRNA)
# RNA: GGGAGGUGGACGAACUGCCCUCAGCUACUUUCAUGUUGCUGACGCACAGACGACUCGCUG
# modifications: 2'-F pyrimidines
# Key:
# [1] = molecular target: T1, glycoprotein IIb/IIIa on activated platelets (Homo sapiens, UniProt P08514;P08514;P05106 P08514:32-887,P08514:891-1039,P05106:27-788); test: filter; apparent Kd on activated platelets, poorest binder; details: label: 5'-32P
# Experimental: (§1) In order to correlate the real-time data with binding affinity, purified 11D platelets were isolated and the affinity of each round to activated platelets was measured using nitrocellulose-filter partitioning (Wang et al, Biochemistry 32:1899-1904 (1993)). Since purified gpIIb/IIIa were selected, 80,000 gpIIb/IIIa receptors per platelet were assumed (Tcheng, Am. Heart J. 139:S38-45 (2000)) and the theoretical concentration of the protein was calculated.
# (§2) Representative clones from each family were subsequently tested for their ability to bind to purified platelets.
# [2] = molecular target: VWF SPI fragment (V8 protease; C-terminal 455 residues of SPIII) (UniProt P04275 P04275:1674-2128); test: filter; 37 C, 2 mM CaCl2; details: label: 5'-32P
# Experimental: (§3) Affinity constants (Kd values) were determined using double-filter nitrocellulose filter binding assays (Rusconi et al, Thromb. Haemost. 84:841-848 (2000)). All binding studies were performed in either binding buffer E (20 mM HEPES, pH 7.4, 50 mM NaCl, 2 mM CaCl₂, and 0.1% BSA) or binding buffer F (20 mM HEPES, pH 7.4, 150 mM NaCl, 2 mM CaCl₂, and 0.1% BSA) at 37° C. Human purified VWF (factor VIII free) was purchased from Haematologic Technologies Inc. (Essex Junction, VT) and used in the double-filter nitrocellulose filter binding assay to determine the Kd of every other round and individual clones. VWF SPI and VWF SPIII domains were kindly provided by Dr. J. Evan Sadler (Washington University in St. Louis). Briefly, RNA were dephosphorylated using bacterial alkaline phosphatase (Gibco BRL, Gaithberg, Md.) and end-labeled at the 5′ end with T4 polynucleotide kinase (New England Biolabs, Beverly, Mass.) and [γ³²P] ATP (Amersham Pharmacia Biotech, Piscataway, N.J.) (Fitzwater and Polisky, Methods Enzymol. 267:275-301 (1996)). Direct binding was performed by incubating ³²P-RNA with VWF in physiological buffer+1 mg/ml BSA at 37° C. for 5 min. The fraction of the nucleic acid-protein complex which bound to the nitrocellulose membrane was quantified with a posphoimager (Molecular Dynamics, Sunnyvale, Calif.).
# [3] = molecular target: T2, von Willebrand factor (VWF) (Homo sapiens, UniProt P04275 P04275:764-2813); test: filter; nitrocellulose filter binding, 37 C, 2 mM CaCl2; details: tags: Haematologic Technologies Inc. (factor VIII free); label: 5'-32P
# Experimental: as §3
# [4] = molecular target: T1, glycoprotein IIb/IIIa on activated …; test: filter; apparent Kd on activated platelets, 37 C; details: label: 5'-32P
# Experimental: as §1, §2
# [5] = molecular target: T2, von Willebrand factor (VWF); test: filter; buffer F, 150 mM NaCl, 2 mM CaCl2, 37 C; Bmax 61%; details: tags: Haematologic Technologies Inc. (factor VIII free); label: 5'-32P
# Experimental: Dissociation constants (Kd) of each truncate were determined using double-filter nitrocellulose filter binding assays (Pergolizzi et al, Blood 108:862-869 (2006)). All binding studies were performed in binding buffer F (20 mM HEPES, pH 7.4, 150 mM NaCl, 2 mM CaCl₂, and 0.1% BSA) at 37° C. Human purified VWF (with factor VIII and factor VIII free) was purchased from Haematologic Technologies Inc. (Essex Junction, VT) and used in the double-filter nitrocellulose filter binding assay to determine the Kd of individual clones. Briefly, RNA was dephosphorylated using bacterial alkaline phosphatase (Gibco BRL, Gaithberg, Md.) and end-labeled at the 5′ end with T4 polynucleotide kinase (New England Biolabs, Beverly, Mass.) and [γ³²P] ATP (Amersham Pharmacia Biotech, Piscataway, N.J.). Direct binding was performed by incubating ³²P—RNA with VWF in physiological buffer+1 mg/ml BSA at 37° C. for 5 min. The fraction of the nucleic acid-protein complex which bound to the nitrocellulose membrane was quantified with a phosphoimager (Molecular Dynamics, Sunnyvale, Calif.).
binder,measurement,setting,value
B1,Kd,[1],62 nM
B2,binding result,[2],no binding
same,Kd,[3],12 nM
B3,Kd,[4],6 nM
B4,Kd,[5],44 nM
